According to PMC3659392 (Science translational medicine, 2012):

Legend:
DprE1 [1] = target: T1, DprE1 (Mycolicibacterium smegmatis, UniProt A0R607); experiment: crystal structure of covalent adduct; format: biochemical
T1 sequence (A0R607 1-460): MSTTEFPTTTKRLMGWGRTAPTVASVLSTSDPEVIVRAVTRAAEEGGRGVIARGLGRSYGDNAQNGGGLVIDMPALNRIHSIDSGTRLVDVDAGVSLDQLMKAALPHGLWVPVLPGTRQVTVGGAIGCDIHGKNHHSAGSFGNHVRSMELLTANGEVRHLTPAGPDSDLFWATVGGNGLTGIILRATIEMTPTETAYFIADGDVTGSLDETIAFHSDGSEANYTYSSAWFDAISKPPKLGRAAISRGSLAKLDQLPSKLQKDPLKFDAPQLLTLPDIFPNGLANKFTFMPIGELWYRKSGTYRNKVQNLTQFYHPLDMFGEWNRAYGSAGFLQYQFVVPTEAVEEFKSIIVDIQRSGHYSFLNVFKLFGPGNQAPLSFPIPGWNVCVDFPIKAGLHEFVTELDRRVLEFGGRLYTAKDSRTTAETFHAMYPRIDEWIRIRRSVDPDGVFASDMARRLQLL

DprE1 [2] = target: T1, DprE1; experiment: DCPIP enzyme assay, […] min incubation; format: biochemical
purified protein [3] = substrate: CC(C)=CCC/C(C)=C/CC/C(C)=C/COP(=O)(O)O[C@@H]1O[C@H](CO)[C@@H](O)[C@H]1O; experiment: purified protein; details: FAD; pH 8.5
purified protein [4] = substrate: O=C1C(Cl)=CC(=Nc2ccc(O)cc2)C=C1Cl; experiment: purified protein; details: FAD electron acceptor re-oxidizing reduced FAD

C[C@H]1COC2(CCN(c3nc(=O)c4cc(C(F)(F)F)cc([N+](=O)[O-])c4s3)CC2)O1 [BTZ043]
IC50 (DprE1 [1]): 4.5 µM

C[C@H]1COC2(CCN(c3nc(=O)c4cc(C(F)(F)F)cc(NO)c4s3)CC2)O1 [BTZ046]
IC50 (DprE1 [2]): 19.7 µM

C[C@H]1COC2(CCN(c3nc(=O)c4cc(C(F)(F)F)cc(N)c4s3)CC2)O1 [BTZ045]
IC50 (DprE1 [2]): 11 µM

B1: DprE1 (Mycolicibacterium smegmatis MC2 155) (protein)
chain: MSTTEFPTTTKRLMGWGRTAPTVASVLSTSDPEVIVRAVTRAAEEGGRGVIARGLGRSYGDNAQNGGGLVIDMPALNRIHSIDSGTRLVDVDAGVSLDQLMKAALPHGLWVPVLPGTRQVTVGGAIGCDIHGKNHHSAGSFGNHVRSMELLTANGEVRHLTPAGPDSDLFWATVGGNGLTGIILRATIEMTPTETAYFIADGDVTGSLDETIAFHSDGSEANYTYSSAWFDAISKPPKLGRAAISRGSLAKLDQLPSKLQKDPLKFDAPQLLTLPDIFPNGLANKFTFMPIGELWYRKSGTYRNKVQNLTQFYHPLDMFGEWNRAYGSAGFLQYQFVVPTEAVEEFKSIIVDIQRSGHYSFLNVFKLFGPGNQAPLSFPIPGWNVCVDFPIKAGLHEFVTELDRRVLEFGGRLYTAKDSRTTAETFHAMYPRIDEWIRIRRSVDPDGVFASDMARRLQLL
Km (purified protein [3]): 110 µM
kcat (purified protein [3]): 0.212 ± 0.01 s⁻¹
kcat/Km (purified protein [3]): 1930 ± 182 M⁻¹ s⁻¹
Km (purified protein [4]): 4.2 µM
